Assay results taken from US6335019B1, “Methods for treating sensitivity to protein allergen using peptides which include a T cell epitope recognized by a T cell receptor specific for the protein allergen” (Immulogic Pharmaceutical Corp., priority 1989, dated 2002).

What was measured:
[1] = system: T cells from patients allergic to ragweed; experiment: T cell proliferation of ragweed allergic patient T cells to ragweed proteins and recombinant lysates (tritiated thymidine); assay type: cell-based, human
Source text: T cells from patients allergic to ragweed, previously stimulated with a mixed ragweed pollen extract, can recognize and proliferate in response to pollen extract, ragweed skin test reagent (RWST), affinity purified Amb a I protein and crude bacterial lysates containing recombinant Amb a I gene products IA, IB and IC (Table 4). […] The use of crude bacterial lysates as antigens precludes a firm conclusion form the negative responses, since the relative levels of recombinant proteins in lysate have not been determined.
Peripheral blood mononuclear cells (PBMC) were purified from 60 ml of heparinized blood from ragweed-allergic patients. PBMC were subsequently treated as described below, although in individual cases, the length of time of cultivation with IL-2 and IL-4 and the specific ragweed proteins and peptides used for stimulation varied. As an example, ten ml of patient 222 PBMC at 10^6/ml were cultured at 37° C. for 7 days in the presence of 20 micrograms aqueous ragweed pollen extract/ml RPMI-1640 supplemented with 5% pooled human AB serum. Viable cells were purified by Ficoll-Hypaque centrifugation and cultured for three weeks at 5 units recombinant human IL-2/ml and 5 units recombinant human IL-4/ml. The resting T cells were then restimulated (secondary) with 20 micrograms aqueous ragweed pollen extract/ml at a density of 2×10^5 cells/ml in the presence of X-irradiated (3500 RADS) autologous PBMC (5×10^5/ml) for three days, purified by Ficoll-Hypaque centrifugation and grown in 5 units IL-2/ml and 5 units IL-4/ml for two weeks. For assay, 2×10^4 resting secondary T cells were restimulated (tertiary) in the presence of 5×10^4 X-irradiated (3500 RADS) autologous PBMC or 2×10^4 autologous Epstein-Barr virus-transformed B cells (20,000 RADS) with various concentrations of allergen or their fragments in a volume of 200 microliters in 96-well round bottom assay plates for 3 days. Each well then received 1 microCurie tritiated (methyl) thymidine for 16 hours. The counts incorporated were collected onto glass fiber filters and processed for liquid scintillation counting. […] Antigens used: IPC aqueous pollen extract (pollen), Hollister-Stier ragweed skin test extract (RWST), ALK cat epithelium skin test extract (CST), affinity 4B5/B7 antibody purified (dialyzed) Amb a I (B7), and chromatographically purified Amb a I and (Amb a I). Medium only control is shown as a line with no symbol. Alternatively, PBMC were sometimes carried only into a secondary assay (as outlined above for a tertiary assay) with 20 micrograms aqueous pollen extract 7 days, followed by culture in 5 units IL-2/ml and 5 units IL-4/ml for 2-3 weeks. […] Secondary and tertiary assays of a panel of ragweed allergic patients were performed using synthetic peptides derived from the sequences of various ragweed pollen proteins. […] Another four peptides (RAE15.6, RAE3.D, RAE28.1, RAE26.15) which are also derived from the sequence of the same three cDNA's could stimulate 35 to 58% of the patients' T cells. One peptide (RAE4) which is derived from the cDNA of IPC Clone 5 could also stimulate 25% of the patients' T cells. […] By this method it is possible to identify novel therapeutic and diagnostics entities for use in the treatment and the diagnosis of ragweed allergy.

[2] = system: rabbit antisera directed against an Amb a II sequence (amino acid 326-338; RAE 50. K); experiment: Western blot of recombinant proteins with monospecific anti-peptide antisera against RAE 50. K; assay type: binding; conditions: Western blots, data not shown
Source text: Proteins or peptides encoded by the cDNA of the present invention can be used, for example, as “purified” allergens. Such purified allergens are useful in the standardization of allergen extracts which are key reagents for the diagnosis and treatment of ragweed allergy. Furthermore, by using peptides based on the sequences listed in FIGS. 2 through 16, anti-peptide antisera or monoclonal antibodies can be made using standard methods. Such reagents can be specifically directed against individual isoforms of Amb a I or Amb a II (i.e., directed against divergent regions/epitopes of the molecule) or can be specific for all forms Amb a I or Amb a II (i.e, directed against common sequences/epitopes). These sera or monoclonal antibodies, directed against Amb a I or Amb a II, can be used to standardize allergen extracts. One such monospecific anti-peptide antisera has already been successfully produced.

[3] = system: goat anti-Amb a I antibody; experiment: Western blot of E. coli-expressed recombinant Amb a I / Amb a II with goat anti-Amb a I antibody (FIG. 19); assay type: binding
Protocol: Furthermore, full-length and truncated cDNAs encoding several members of the Amb a I multigene family, as well as Amb a II, were cloned in-frame into the expression vector pTrc99 (Amann et al. Gene, 69:301-315, (1988)) and transformed into the JM109 host. Expression of recombinant Amb a I and Amb a II protein was induced by 1 mM isopropyl-β-D-thiogalactopyranoside, cells were harvested, lysozyme treated, sonicated and insoluble inclusion bodies recovered by a low speed centrifugation. Recombinant Amb a I and Amb a II protein present in the recovered pellet was solubilized in buffer containing 8M urea, 50 mM Tris HC1 pH8.0, 50 mM NaCl, 1 mM EDTA, 1 mM dithiothreitol, 1 mM phenylmethylsulfonyl fluoride. After solubilization, the crude urea lysate was dialyzed at 4° C. against PBS. […] This antigenic cross-reactivity is consistent with the observed sequence homology of the cDNAs (see FIG. 16).
Isoelectric focusing was done on a Hoeffer gel apparatus with 15 μg of crude soluble pollen protein. The gel consisted of 7.5% acrylamide with 3.5% Pharmalytes pH 4.5-5.3 (Pharmacia) and 3.5% Ampholines pH 3.5-10 (LKB), run at 13W for 3.5 hours until a constant voltage was reached. The gel section was placed on a slab of 10% acrylamide SDS-PAGE and electrophoresed for 3.5 hours at 40 mA according to the protocol cited. The proteins were transferred overnight in phosphate buffer to 0.1 micron nitrocellulose (Schleicher and Schuell) at 0.2A. The blot was rinsed in blot solution (25 mM Tris-CHl pH 7.5, 0.171 M NaCl, 0.05% Tween-20; Sigma). The first antibody incubation was overnight at room temperature with a […] of goat anti-Amb a I IgC (obtained from Dr. David Marsh) in blot solution. The excess first antibody was removed with three 15 minute rinses with blot solution. The second antibody was a 1:2,500 dilution of biotinylated swine anti-goat IgG (Boehringer-Manneheim) in blot solution for two hours. The blot was then rinsed with blot solution three times for 15 minutes and incubated for 1 hr in blot solution with 2 μCi I^125 streptavidin (Amersham). The blots were rinsed with blot solution until the waste wash was down to background. The blot was then exposed to film at —80° C. overnight. In the case of one-dimensional SDS-PAGE Western blots (FIGS. 17, 19 and 20) the isoelectric focusing step was omitted. When human sera was used to probe the Western blots (FIGS. 17 and 20), 10% human plasma in 1% milk in blot solution was incubated overnight with the blot prior to using as second antibody biotinylated goat anti-human IgE.

B1: Amb a IB: E. coli expressed recombinant Amb a IB, used as crude bacterial lysate (protein)
chain: LYFTLALVTLLQPVRSAEDVEEFLPSANETRRSLKACEAHNIIDKCWRCKADWANNRQALADCAQGFAKGTYGGKHGDVYTVTSDKDDDVANPKEGTLRFAAAQNRPLWIIFKRNMVIHLNQELVVNSDKTIDGRGVKVNIVNAGLTLMNVKNIIIHNINIHDIKVCPGGMIKSNDGPPILRQQSDGDAINVAGSSQIWIDHCSLSKASDGLLDITLGSSHVTVSNCKFTQHQFVLLLGADDTHYQDKGMLATVAFNMFTDHVDQRMPRCRFGFFQVVNNNYDRWGTYAIGGSSAPTILSQGNRFFAPDDIIKKNVLARTGTGNAESMSWNWRTDRDLLENGAIFLPSGSDPVLTPEQKAGMIPAEPGEAVLRLTSSAGVLSCHQGAPC
In the case of B1, the “T cell recognition and proliferation (in words)” value ([1]; T cells previously stimulated with mixed ragweed pollen extract, summary of Table 4) is reported as “proliferate”, the “Stimulatory response of human T cells (proliferation compared to medium control)” value ([1]; patient 151 2° (secondary assay)) is reported as “+ (2-4 fold)” and the “Stimulatory response of human T cells (proliferation compared to medium control)” value ([1]; patient 274 2° (secondary assay)) is reported as “+ (2-4 fold)”. For the same molecule, the “Stimulatory response of human T cells (proliferation compared to medium control)” value ([1]; patient 295 2° (secondary assay)) was “+ (2-4 fold)”, the “Stimulatory response of human T cells (proliferation compared to medium control)” value ([1]; patient 296 2° (secondary assay)) was “+++ (>10 fold)” and the “Stimulatory response of human T cells (proliferation compared to medium control)” value ([1]; patient 314 2° (secondary assay)) was “+++ (>10 fold)”. The “Stimulatory response of human T cells (proliferation compared to medium control)” value ([1]; patient 316 2° (secondary assay)) was “++ (4-10 fold)”, the “Stimulatory response of human T cells (proliferation compared to medium control)” value ([1]; patient 319 2° (secondary assay)) was “(+) (2 fold)” and the “Stimulatory response of human T cells (proliferation compared to medium control)” value ([1]; patient 320 2° (secondary assay)) was “+ (2-4 fold)”. The “Stimulatory response of human T cells (proliferation compared to medium control)” value ([1]; patient 321 2° (secondary assay)) was “++ (4-10 fold)”, the “Binding by rabbit anti-RAE 50. K antisera (in words)” value [2] was “not” and the “Binding by goat anti-Amb a I antibody (in words)” value [3] was “binds specifically”.
